From PMC6510601

Target: hepatitis B virus (HBV) truncated core protein Cp149 dimer (hepatitis B virus)
Test: resistive-pulse sensing

Question: “hepatitis B virus (HBV) truncated core protein Cp149 dimer (domain or fragment)” was tested. Which stoichiometry N did it give?
Answer: 90 dimers
